“And” between values parts separate entries of the source, which are not always exact repeats. Identical values can stand only once. Each block holds one molecule with its values, some of them ahead of it.
What was measured:
[1] = target: T1, OCT3 (Homo sapiens, UniProt O75751); assay: Cellular uptake ratio, OCT3-overexpressing HEK293 cells vs empty vector; type: cell-based; details: for OCT3 transport category: based on ratio uptake data at 1 µM
T1 construct: expressed in transfected cells; host or cells: HEK293, stably transfected; gift from Dr. Koepsell and Dr. Gorbulev (University of Würzburg)
T1 sequence (O75751 1-556): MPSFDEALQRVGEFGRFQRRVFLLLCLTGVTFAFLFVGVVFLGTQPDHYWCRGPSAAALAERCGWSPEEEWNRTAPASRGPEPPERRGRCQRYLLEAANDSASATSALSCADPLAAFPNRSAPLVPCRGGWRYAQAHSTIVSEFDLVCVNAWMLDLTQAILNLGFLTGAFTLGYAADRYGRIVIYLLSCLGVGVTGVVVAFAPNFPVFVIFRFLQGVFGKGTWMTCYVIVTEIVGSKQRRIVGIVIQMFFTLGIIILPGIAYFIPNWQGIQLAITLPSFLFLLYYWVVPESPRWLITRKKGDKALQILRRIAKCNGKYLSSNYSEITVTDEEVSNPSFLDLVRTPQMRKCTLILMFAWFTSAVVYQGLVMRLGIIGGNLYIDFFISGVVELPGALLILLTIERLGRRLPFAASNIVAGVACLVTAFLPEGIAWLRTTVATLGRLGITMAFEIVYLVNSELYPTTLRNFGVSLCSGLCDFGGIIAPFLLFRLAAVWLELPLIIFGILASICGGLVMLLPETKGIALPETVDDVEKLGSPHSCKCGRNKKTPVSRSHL
Description: (§1) The wild-type cell lines of OCT1 and OCT2, as well as the variant cell lines OCT1*2 and *3, were generated using the Flp-In system (Thermo Fisher Scientific, Darmstadt, Germany) as described in previous publications. The cell line overexpressing OCT3 was a kind gift from Dr. Koepsell and Dr. Gorbulev (University of Würzburg, Germany). Cells transfected with the empty pcDNA5/FRT vector were used for the transport experiments as a control cell line. All cells were cultured approximately up to passage 30.
(§2) Forty-eight hours before the transport experiments, 600,000 cells were plated on 12-well plates pre-coated with poly-D-lysine and incubated at 37 °C with 5% CO2. The prepared 12-well plate with cells was positioned on a heating plate pre-warmed to 37 °C. After removing the medium, the cells were washed with 37 °C HBSS+ (10 mM HEPES in Hank’s balanced salt solution, pH 7.4). Then, one pre-defined concentration of a substrate was added to each well. The incubation period was stopped by adding 2 mL of 4 °C HBSS+ and removing the cells from the heating plate. The cells were washed twice with 4 °C HBSS+. For cell lysis, the cells were incubated for 15 min with 500 µL of 80% acetonitrile (LGC Standards, Wesel, Germany), which contained a respective internal standard (Table 1).
(§3) For concentration-dependent transport, the cells were incubated with defined substrate concentrations (0.1, 1, 10, 30, 100, 300, 600, 1000 µM) for the respective pre-defined incubation times. […] The uptake by a transporter was normalised to the uptake by empty vector-transfected cells. […] The results of transport experiments were normalized to the total protein concentration per well. Total protein quantification was performed using a bicinchoninic acid assay with bovine serum albumin as standard.
(§4) The ratios of cellular uptake were calculated by dividing the total uptake of transporter-overexpressing cells by the total uptake into empty vector transfected cells. The concentration-dependent cellular net uptake was used for analysis of transport kinetics by subtracting for each substrate concentration the uptake of empty vector-transfected cells from the uptake of transporter-overexpressing cells. […] The intrinsic clearance Clint was expressed with the ratio of Vmax and KM.

[2] = tested on: hCMEC/D3; details: BBB-representing cell line hCMEC/D3; cited from earlier work
[3] = target: T2, human OCT1*1 (wild-type) (Homo sapiens, UniProt O15245); assay: Concentration-dependent uptake (transport kinetics) in HEK293 cells overexpressing OCT1 wild-type; details: for Clint (±SEM): intrinsic clearance = ratio of Vmax and KM, OCT1 wild-type
T2 sequence (O15245 1-554): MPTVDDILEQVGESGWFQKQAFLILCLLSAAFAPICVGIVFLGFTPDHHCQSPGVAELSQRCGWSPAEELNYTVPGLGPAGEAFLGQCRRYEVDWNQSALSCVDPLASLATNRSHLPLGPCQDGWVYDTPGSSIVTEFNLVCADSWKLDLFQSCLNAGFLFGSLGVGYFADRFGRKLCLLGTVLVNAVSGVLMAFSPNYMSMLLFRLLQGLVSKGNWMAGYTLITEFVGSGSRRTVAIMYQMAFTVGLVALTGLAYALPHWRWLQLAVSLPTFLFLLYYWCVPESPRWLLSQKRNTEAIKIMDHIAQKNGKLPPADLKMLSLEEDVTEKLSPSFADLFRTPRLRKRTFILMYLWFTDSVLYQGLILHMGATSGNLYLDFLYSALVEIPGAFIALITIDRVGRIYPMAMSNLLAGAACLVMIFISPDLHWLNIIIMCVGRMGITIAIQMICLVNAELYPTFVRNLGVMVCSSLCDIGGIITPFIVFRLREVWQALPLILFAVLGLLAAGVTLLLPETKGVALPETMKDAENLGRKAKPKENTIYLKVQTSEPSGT

[4] = target: T3, wild-type human OCT2 (Homo sapiens, UniProt O15244); assay: Cellular uptake ratio, OCT2-overexpressing HEK293 cells vs empty vector; type: cell-based; details: based on ratio uptake data at 1 µM
T3 sequence (O15244 1-555): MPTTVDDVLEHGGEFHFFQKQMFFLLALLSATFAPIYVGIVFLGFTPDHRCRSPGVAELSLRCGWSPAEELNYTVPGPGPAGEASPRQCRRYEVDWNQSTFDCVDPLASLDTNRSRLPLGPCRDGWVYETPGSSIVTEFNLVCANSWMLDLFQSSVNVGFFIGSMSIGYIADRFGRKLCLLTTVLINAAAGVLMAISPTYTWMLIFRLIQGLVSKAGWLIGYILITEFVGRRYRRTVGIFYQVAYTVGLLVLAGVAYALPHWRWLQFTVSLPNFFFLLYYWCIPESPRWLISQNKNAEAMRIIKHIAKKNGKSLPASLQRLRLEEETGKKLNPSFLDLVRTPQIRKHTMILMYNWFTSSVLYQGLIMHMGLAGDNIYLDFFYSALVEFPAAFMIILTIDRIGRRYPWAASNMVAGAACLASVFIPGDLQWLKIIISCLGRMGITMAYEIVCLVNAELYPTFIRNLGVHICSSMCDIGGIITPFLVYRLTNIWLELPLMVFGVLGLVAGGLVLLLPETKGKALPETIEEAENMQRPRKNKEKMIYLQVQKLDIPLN
Description: as §1, §2, §3, §4

[5] = target: OCT1 (wild-type, OCT1*1) (Homo sapiens, UniProt O15245); assay: Concentration-dependent uptake (transport kinetics) in HEK293 cells overexpressing OCT1 wild-type; details: human, HEK293 cells stably overexpressing human OCT1*1 (wild-type), pH 7.4, KM (±SEM), net uptake (OCT1 minus empty vector), HEK293, 0.1-1000 µM substrate, Michaelis–Menten
[6] = target: T2, human OCT1*1 (wild-type); assay: Cellular uptake ratio, OCT1-overexpressing HEK293 cells vs empty vector; type: cell-based; details: for OCT1 transport category: based on ratio uptake data at 1 µM
Description: as §1, §2, §3, §4

[7] = Human pharmacokinetic background values; type: in vivo; details: blood, conversion of the KM of about 60 µM, read-out: blood concentration corresponding to KM
[8] = human; no reference given; cited from earlier work
[9] = substrate: CNS(=O)(=O)Cc1ccc2[nH]cc(CCN(C)C)c2c1; assay: cells, lysate or membranes; details: other: net uptake (OCT1 minus empty vector), HEK293, 0.1-1000 µM substrate, Michaelis–Menten; pH 7.4
[10] = substrate: C[N+]1(C)CCC[C@H]1C(=O)[O-]; assay: cells, lysate or membranes; details: other: net uptake (OCT1 minus empty vector), HEK293, 0.1-1000 µM substrate, Michaelis–Menten; pH 7.4
[11] = substrate: COc1cc(Cc2cnc(N)nc2N)cc(OC)c1OC; assay: cells, lysate or membranes; details: other: net uptake (OCT1 minus empty vector), HEK293, 0.1-1000 µM substrate, Michaelis–Menten; pH 7.4
[12] = substrate: Nc1nc2c(ncn2COCCO)c(=O)[nH]1; assay: cells, lysate or membranes; details: other: net uptake (OCT1 minus empty vector), HEK293, 0.1-1000 µM substrate, Michaelis–Menten; pH 7.4
[13] = substrate: Nc1ccn([C@@H]2CS[C@H](CO)O2)c(=O)n1; assay: cells, lysate or membranes; details: other: net uptake (OCT1 minus empty vector), HEK293, 0.1-1000 µM substrate, Michaelis–Menten; pH 7.4
[14] = substrate: C[C@](N)(Cc1ccc(O)c(O)c1)C(=O)O; assay: cells, lysate or membranes; details: other: net uptake (OCT1 minus empty vector), HEK293, 0.1-1000 µM substrate, Michaelis–Menten; pH 7.4
[15] = substrate: CCCCC[C@H](O)/C=C/[C@H]1[C@H](O)CC(=O)[C@@H]1C/C=C\CCCC(=O)O; assay: cells, lysate or membranes; details: pH 7.4
[16] = substrate: Nc1ccn([C@H]2CC[C@@H](CO)O2)c(=O)n1; assay: cells, lysate or membranes; details: other: net uptake (OCT1 minus empty vector), HEK293, 0.1-1000 µM substrate, Michaelis–Menten; pH 7.4
[17] = substrate: N=C(N)c1ccc(OCCCCCOc2ccc(C(=N)N)cc2)cc1; assay: cells, lysate or membranes; details: other: net uptake (OCT1 minus empty vector), HEK293, 0.1-1000 µM substrate, Michaelis–Menten; pH 7.4
[18] = substrate: C[C@H]1COc2c(N3CCN(C)CC3)c(F)cc3c(=O)c(C(=O)O)cn1c23; assay: cells, lysate or membranes; details: other: net uptake (OCT1 minus empty vector), HEK293, 0.1-1000 µM substrate, Michaelis–Menten; pH 7.4
[19] = substrate: Nc1nc(=O)n([C@@H]2CS[C@H](CO)O2)cc1F; assay: cells, lysate or membranes; details: other: net uptake (OCT1 minus empty vector), HEK293, 0.1-1000 µM substrate, Michaelis–Menten; pH 7.4
[20] = substrate: N[C@@H](Cc1ccc(O)c(O)c1)C(=O)O; assay: cells, lysate or membranes; details: other: net uptake (OCT1 minus empty vector), HEK293, 0.1-1000 µM substrate, Michaelis–Menten; pH 7.4
[21] = other: net uptake (OCT1 minus empty vector), HEK293, 0.1-1000 µM substrate, Michaelis–Menten

Molecule: CNS(=O)(=O)Cc1ccc2[nH]cc(CCN(C)C)c2c1 [Sumatriptan, sumatriptan]
Km [7]: ~17.8 µg/mL
uptake by OCT3 (normalised to empty vector) ([1]; 1 µM substance): relevant uptake
OCT3 transport category [1]: + (good substrates of OCTs when the intrinsic clearance is between 5–15 or the ratio is 2–10)
OCT2 transport category [4]: ++ (very good substrates of OCTs that have an intrinsic clearance >15 or show an uptake ratio >10)
Clint (±SEM) [3]: 36.8 ± 7.32 µL/mg Protein/min
typical human maximum blood concentration [8]: about 30 µg/L
uptake ratio by OCT1 (normalised to empty vector) ([6]; 1 µM and 100 µM substance): up to 30
OCT1 transport category [6]: ++ (very good substrates of OCTs that have an intrinsic clearance >15 or show an uptake ratio >10)

B1: human OCT1*1 (wild-type) (Homo sapiens) (protein)
chain: MPTVDDILEQVGESGWFQKQAFLILCLLSAAFAPICVGIVFLGFTPDHHCQSPGVAELSQRCGWSPAEELNYTVPGLGPAGEAFLGQCRRYEVDWNQSALSCVDPLASLATNRSHLPLGPCQDGWVYDTPGSSIVTEFNLVCADSWKLDLFQSCLNAGFLFGSLGVGYFADRFGRKLCLLGTVLVNAVSGVLMAFSPNYMSMLLFRLLQGLVSKGNWMAGYTLITEFVGSGSRRTVAIMYQMAFTVGLVALTGLAYALPHWRWLQLAVSLPTFLFLLYYWCVPESPRWLLSQKRNTEAIKIMDHIAQKNGKLPPADLKMLSLEEDVTEKLSPSFADLFRTPRLRKRTFILMYLWFTDSVLYQGLILHMGATSGNLYLDFLYSALVEIPGAFIALITIDRVGRIYPMAMSNLLAGAACLVMIFISPDLHWLNIIIMCVGRMGITIAIQMICLVNAELYPTFVRNLGVMVCSSLCDIGGIITPFIVFRLREVWQALPLILFAVLGLLAAGVTLLLPETKGVALPETMKDAENLGRKAKPKENTIYLKVQTSEPSGT
Km [9]: 60 µM and 58.9 ± 5.1 µM
Vmax [9]: 0.00217 µmol/min/mg
Vmax/Km [9]: 36.8 µL/min/mg
Km [10]: 881 ± 910 µM
Km [11]: 4.78 ± 1.24 µM
Km [12]: 142 ± 189 µM
Km [13]: 232 ± 43.0 µM
Km [14]: 647 ± 335.6 µM
Vmax [14]: 0.00384 µmol/min/mg
Vmax/Km [14]: 5.94 µL/min/mg
Km ([15]; other: OCT1 wild-type, rounded in discussion): 1000 µM
Km [15, 21]: 1177 ± 744 µM
Vmax [15, 21]: 0.00412 µmol/min/mg
Vmax/Km [15, 21]: 3.5 µL/min/mg
Km [16]: 1194 ± 193 µM
Vmax [16]: 0.00307 µmol/min/mg
Vmax/Km [16]: 2.57 µL/min/mg
Km [17]: 124 ± 136 µM
Km [18]: 3326 ± 1458 µM
Km [19]: 1123 ± 335 µM
Vmax [19]: 0.0069 µmol/min/mg
Vmax/Km [19]: 6.15 µL/min/mg
Km [20]: 363 ± 163 µM

Further lines, with some results ahead:

Clint (±SEM) [3]: 2.77 ± 5.66 µL/mg Protein/min
Molecule: Nc1nnc(-c2cccc(Cl)c2Cl)c(N)n1 [Lamotrigine, lamotrigine]
OCT3 transport category [1]: +/− (poor transport with a Clint < 5 or ratio between 1–2 with statistical significance (p < 0.05))
Km [2]: 62 µM

Km [5]: 54.5 ± 7.2 µM
Vmax (±SEM) ([3]; net uptake (OCT1 minus empty vector), HEK293, 0.1-1000 µM substrate, Michaelis–Menten): 1047 ± 123 pmol/mg Protein/min
Molecule: CNC(=C[N+](=O)[O-])NCCSCc1ccc(CN(C)C)o1 [Ranitidin, ranitidine]
OCT3 transport category [1]: 0 (no transport by OCT1, OCT2, and OCT3 occurred (i.e., no kinetic parameters or uptake ratio <2 without significance))
OCT2 transport category [4]: + (good substrates of OCTs when the intrinsic clearance is between 5–15 or the ratio is 2–10)
OCT1 transport category [6]: ++ (very good substrates of OCTs that have an intrinsic clearance >15 or show an uptake ratio >10)
